B1: CDKL4 (parent)
chain: AVKKFVESEDDPVVKKIALREIRM

Variants of: B1
Assay: protein stability index of a GFP-peptide fusion (GPS, HEK-293T) (PSI 1-6); higher = more stable
Settings: c terminus: a fixed tail appended
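Also: lentivirally expressed fusions sorted by FACS into six bins by GFP to DsRed ratio, PSI derived from sequencing read proportions per bin multiplied by bin number.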

| Variant | protein stability index |
| --- | --- |
| AVAKFVESEDDPVVKKIALREIRM [K3A] | 2.83 |
| AVEKFVESEDDPVVKKIALREIRM [K3E] | 3.72 |
| AVWKFVESEDDPVVKKIALREIRM [K3W] | 2.35 |
| AVSKFVESEDDPVVKKIALREIRM [K3S] | 3.23 |
| AVQKFVESEDDPVVKKIALREIRM [K3Q] | 3.04 |
| AVMKFVESEDDPVVKKIALREIRM [K3M] | 2.28 |
| AVCKFVESEDDPVVKKIALREIRM [K3C] | 2.66 |
| AVTKFVESEDDPVVKKIALREIRM [K3T] | 2.86 |
| AVGKFVESEDDPVVKKIALREIRM [K3G] | 2.74 |
| AVIKFVESEDDPVVKKIALREIRM [K3I] | 1.91 |
| AVYKFVESEDDPVVKKIALREIRM [K3Y] | 2.28 |
| AVVKFVESEDDPVVKKIALREIRM [K3V] | 1.95 |
| AVLKFVESEDDPVVKKIALREIRM [K3L] | 2.34 |
| AVRKFVESEDDPVVKKIALREIRM [K3R] | 3.39 |
| AVFKFVESEDDPVVKKIALREIRM [K3F] | 1.76 |
| AVDKFVESEDDPVVKKIALREIRM [K3D] | 3.23 |
| AVPKFVESEDDPVVKKIALREIRM [K3P] | 3.02 |
| AVHKFVESEDDPVVKKIALREIRM [K3H] | 3.6 |
| AVNKFVESEDDPVVKKIALREIRM [K3N] | 3.45 |
| AVKKFIESEDDPVVKKIALREIRM [V6I] | 1.93 |
| AVKKFQESEDDPVVKKIALREIRM [V6Q] | 3.42 |
| AVKKFPESEDDPVVKKIALREIRM [V6P] | 3.78 |
| AVKKFDESEDDPVVKKIALREIRM [V6D] | 3.65 |
| AVKKFEESEDDPVVKKIALREIRM [V6E] | 3.72 |

| Variant | protein stability index |
| --- | --- |
| AVKKFWESEDDPVVKKIALREIRM [V6W] | 2.57 |
| AVKKFYESEDDPVVKKIALREIRM [V6Y] | 2.57 |
| AVKKFMESEDDPVVKKIALREIRM [V6M] | 3.23 |
| AVKKFNESEDDPVVKKIALREIRM [V6N] | 3.6 |
| AVKKFFESEDDPVVKKIALREIRM [V6F] | 2.1 |
| AVKKFAESEDDPVVKKIALREIRM [V6A] | 3.07 |
| AVKKFGESEDDPVVKKIALREIRM [V6G] | 3.33 |
| AVKKFSESEDDPVVKKIALREIRM [V6S] | 3.17 |
| AVKKFTESEDDPVVKKIALREIRM [V6T] | 3.16 |
| AVKKFCESEDDPVVKKIALREIRM [V6C] | 2.82 |
| AVKKFRESEDDPVVKKIALREIRM [V6R] | 2.48 |
| AVKKFKESEDDPVVKKIALREIRM [V6K] | 3.26 |
| AVKKFLESEDDPVVKKIALREIRM [V6L] | 3.23 |
| AVKKFHESEDDPVVKKIALREIRM [V6H] | 3.08 |
| AVKKFVYSEDDPVVKKIALREIRM [E7Y] | 2.32 |
| AVKKFVNSEDDPVVKKIALREIRM [E7N] | 3.19 |
| AVKKFVKSEDDPVVKKIALREIRM [E7K] | 2.61 |
| AVKKFVRSEDDPVVKKIALREIRM [E7R] | 2.52 |
| AVKKFVCSEDDPVVKKIALREIRM [E7C] | 2.36 |
| AVKKFVASEDDPVVKKIALREIRM [E7A] | 2.99 |
| AVKKFVLSEDDPVVKKIALREIRM [E7L] | 1.97 |
| AVKKFVSSEDDPVVKKIALREIRM [E7S] | 3.04 |
| AVKKFVHSEDDPVVKKIALREIRM [E7H] | 2.18 |
| AVKKFVVSEDDPVVKKIALREIRM [E7V] | 2.54 |

| Variant | protein stability index |
| --- | --- |
| AVKKFVWSEDDPVVKKIALREIRM [E7W] | 2.14 |
| AVKKFVMSEDDPVVKKIALREIRM [E7M] | 2.43 |
| AVKKFVTSEDDPVVKKIALREIRM [E7T] | 2.52 |
| AVKKFVFSEDDPVVKKIALREIRM [E7F] | 1.94 |
| AVKKFVDSEDDPVVKKIALREIRM [E7D] | 2.71 |
| AVKKFVISEDDPVVKKIALREIRM [E7I] | 2 |
| AVKKFVGSEDDPVVKKIALREIRM [E7G] | 1.99 |
| AVKKFVQSEDDPVVKKIALREIRM [E7Q] | 2.54 |
| AVKKFVPSEDDPVVKKIALREIRM [E7P] | 2.97 |
| AVKKFVETEDDPVVKKIALREIRM [S8T] | 3.14 |
| AVKKFVEHEDDPVVKKIALREIRM [S8H] | 3.02 |
| AVKKFVEAEDDPVVKKIALREIRM [S8A] | 2.92 |
| AVKKFVEFEDDPVVKKIALREIRM [S8F] | 2.08 |
| AVKKFVEMEDDPVVKKIALREIRM [S8M] | 3.04 |
| AVKKFVEYEDDPVVKKIALREIRM [S8Y] | 3.17 |
| AVKKFVECEDDPVVKKIALREIRM [S8C] | 2.54 |
| AVKKFVEDEDDPVVKKIALREIRM [S8D] | 3.12 |
| AVKKFVEGEDDPVVKKIALREIRM [S8G] | 2.68 |
| AVKKFVELEDDPVVKKIALREIRM [S8L] | 1.91 |
| AVKKFVEKEDDPVVKKIALREIRM [S8K] | 3.15 |
| AVKKFVENEDDPVVKKIALREIRM [S8N] | 3.32 |
| AVKKFVEEEDDPVVKKIALREIRM [S8E] | 3.07 |
| AVKKFVEPEDDPVVKKIALREIRM [S8P] | 2.7 |
| AVKKFVEWEDDPVVKKIALREIRM [S8W] | 2.24 |

| Variant | protein stability index |
| --- | --- |
| AVKKFVEVEDDPVVKKIALREIRM [S8V] | 2.64 |
| AVKKFVEREDDPVVKKIALREIRM [S8R] | 2.43 |
| AVKKFVEIEDDPVVKKIALREIRM [S8I] | 2.54 |
| AVKKFVEQEDDPVVKKIALREIRM [S8Q] | 3.27 |
| EVKKFVESEDDPVVKKIALREIRM [A1E] | 3.85 |
| SVKKFVESEDDPVVKKIALREIRM [A1S] | 3.94 |
| YVKKFVESEDDPVVKKIALREIRM [A1Y] | 2.2 |
| DVKKFVESEDDPVVKKIALREIRM [A1D] | 3.75 |
| VVKKFVESEDDPVVKKIALREIRM [A1V] | 2.43 |
| GVKKFVESEDDPVVKKIALREIRM [A1G] | 3.63 |
| IVKKFVESEDDPVVKKIALREIRM [A1I] | 2.16 |
| NVKKFVESEDDPVVKKIALREIRM [A1N] | 3.38 |
| WVKKFVESEDDPVVKKIALREIRM [A1W] | 2.72 |
| PVKKFVESEDDPVVKKIALREIRM [A1P] | 3.17 |
| CVKKFVESEDDPVVKKIALREIRM [A1C] | 2.48 |
| HVKKFVESEDDPVVKKIALREIRM [A1H] | 2.59 |
| LVKKFVESEDDPVVKKIALREIRM [A1L] | 1.99 |
| TVKKFVESEDDPVVKKIALREIRM [A1T] | 3.1 |
| MVKKFVESEDDPVVKKIALREIRM [A1M] | 2.69 |
| QVKKFVESEDDPVVKKIALREIRM [A1Q] | 3.3 |
| RVKKFVESEDDPVVKKIALREIRM [A1R] | 2.45 |
| FVKKFVESEDDPVVKKIALREIRM [A1F] | 2.21 |

Reference: the supplement of paper PMC10567573
